Data on 13 molecules can be found in patent publication US9593156B2 (priority 2012, dated 2017).

The target of experiment [1] is T1, type B insulin receptor (IR-B) (Homo sapiens, UniProt P06213).
T1 construct: expressed in transfected cells; host or cells: HEK293
The experiment can be described thus: Receptor kinase activity (phosphorylation) assay, type B insulin receptor. Format: cell-based.

Experiment [2] concerns the target T2, type A insulin receptor (IR-A) (Homo sapiens, UniProt P06213).
T2 construct: expressed in transfected cells; host or cells: HEK293
The experiment can be described thus: Receptor kinase activity (phosphorylation) assay, type A insulin receptor. Format: cell-based.

For experiment [3], the target named is IGF-1 receptor (Homo sapiens, UniProt P08069). The experiment can be described thus: IGF-1 receptor competition binding assay (scintillation proximity). More on the design: expressed in transfected cells; plasma membrane fragments. The following applies: Table 9; IGF-1 Receptor. In general terms: SPA uses beads or plates that emit light when radiolabelled molecules are held near them.
Sequence of IGF-1 receptor (P08069 31-736 limits assumed): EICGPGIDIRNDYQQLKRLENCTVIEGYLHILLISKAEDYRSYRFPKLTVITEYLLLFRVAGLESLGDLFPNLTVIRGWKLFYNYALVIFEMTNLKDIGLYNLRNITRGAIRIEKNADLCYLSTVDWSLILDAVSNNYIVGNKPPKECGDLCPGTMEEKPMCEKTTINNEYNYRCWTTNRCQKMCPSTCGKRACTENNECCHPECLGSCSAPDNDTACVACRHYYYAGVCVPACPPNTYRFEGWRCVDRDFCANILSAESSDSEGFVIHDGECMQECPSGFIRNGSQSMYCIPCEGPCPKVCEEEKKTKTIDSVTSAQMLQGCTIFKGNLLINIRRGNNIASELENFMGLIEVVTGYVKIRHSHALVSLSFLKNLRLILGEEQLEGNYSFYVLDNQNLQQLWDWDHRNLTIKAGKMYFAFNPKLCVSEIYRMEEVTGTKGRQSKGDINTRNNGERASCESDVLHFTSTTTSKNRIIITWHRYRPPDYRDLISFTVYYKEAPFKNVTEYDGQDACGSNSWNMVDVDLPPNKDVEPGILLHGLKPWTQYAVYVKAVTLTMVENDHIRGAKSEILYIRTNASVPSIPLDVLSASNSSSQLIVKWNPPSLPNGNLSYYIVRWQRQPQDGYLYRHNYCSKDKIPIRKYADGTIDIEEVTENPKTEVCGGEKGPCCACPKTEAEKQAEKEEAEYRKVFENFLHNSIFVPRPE
Sequence of IGF-1 receptor (P08069 741-1367 partner limits assumed): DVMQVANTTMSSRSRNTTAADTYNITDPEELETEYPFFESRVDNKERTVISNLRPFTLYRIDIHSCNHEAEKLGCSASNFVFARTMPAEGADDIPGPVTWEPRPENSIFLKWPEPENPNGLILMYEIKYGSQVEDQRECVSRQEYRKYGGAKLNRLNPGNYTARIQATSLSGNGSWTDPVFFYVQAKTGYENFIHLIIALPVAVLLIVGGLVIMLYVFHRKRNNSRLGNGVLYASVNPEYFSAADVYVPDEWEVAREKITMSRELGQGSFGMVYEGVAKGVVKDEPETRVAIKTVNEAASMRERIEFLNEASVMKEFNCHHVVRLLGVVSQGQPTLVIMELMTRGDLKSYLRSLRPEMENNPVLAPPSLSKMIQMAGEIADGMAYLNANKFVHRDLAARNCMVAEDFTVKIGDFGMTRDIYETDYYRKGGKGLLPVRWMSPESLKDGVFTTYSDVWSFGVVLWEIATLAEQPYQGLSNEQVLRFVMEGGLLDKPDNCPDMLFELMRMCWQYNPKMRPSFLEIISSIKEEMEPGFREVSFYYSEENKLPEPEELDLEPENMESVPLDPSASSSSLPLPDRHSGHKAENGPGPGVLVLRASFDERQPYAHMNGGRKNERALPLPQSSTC

The target in experiment [4] is insulin receptor (Homo sapiens, UniProt P06213). The experiment in a line: Insulin receptor competition binding assay (scintillation proximity). Also noted: expressed in transfected cells; plasma membrane fragments.

Ends that are not written are not given here.

Take “B1,A14-10K B^1(H5,10Y16L17R29)30-C^1des9-12-A^1(H8,K14,N18,21) (GPEHLCGAHLVDALYLVCGDRGFYFNKRTGYGSSSRRGIVDECCHRSCDLKRLENYCN) [MIU-79]”: the IR-B in experiment [1] (Table 14) was determined as 0.2%. In experiment [2] (Table 14), this molecule registered an IR-A of 1.7%.
As for `CC[C@H](C)[C@H](NC(=O)CN)C(=O)N[C@H](C(=O)N[C@@H](CC(=O)O)C(=O)N[C@@H](CCC(=O)O)C(=O)N[C@H]1CSSC[C@@H]2NC(=O)[C@H](CO)NC(=O)[C@H](CCCNC(=N)N)NC(=O)[C@H](Cc3ccccc3)NC(=O)[C@H](CSSC[C@H](NC(=O)[C@H](CC(C)C)NC(=O)[C@H](Cc3c[nH]cn3)NC(=O)[C@H](CCC(N)=O)NC(=O)[C@H](CC(N)=O)NC(=O)[C@@H](NC(=O)[C@@H](N)Cc3ccccc3)C(C)C)C(=O)NCC(=O)N[C@@H](CO)C(=O)N[C@@H](Cc3c[nH]cn3)C(=O)N[C@@H](CC(C)C)C(=O)N[C@@H](C(C)C)C(=O)N[C@@H](CCC(=O)O)C(=O)N[C@@H](C)C(=O)N[C@@H](CC(C)C)C(=O)N[C@@H](Cc3ccc(O)cc3)C(=O)N[C@@H](CC(C)C)C(=O)N[C@@H](C(C)C)C(=O)N[C@H](C(=O)NCC(=O)N[C@@H](CC(=O)O)C(=O)N[C@@H](CCCNC(=N)N)C(=O)NCC(=O)N[C@@H](Cc3ccccc3)C(=O)N[C@@H](Cc3ccc(O)cc3)C(=O)N[C@@H](Cc3ccccc3)C(=O)N[C@@H](CC(N)=O)C(=O)N[C@@H](CCCCN)C(=O)N3CCC[C@H]3C(=O)N[C@H](C(N)=O)[C@@H](C)O)CSSC[C@@H](C(=O)N[C@@H](C)C(N)=O)NC(=O)[C@H](Cc3ccc(O)cc3)NC(=O)[C@H](CCSC)NC(=O)[C@H](CCC(=O)O)NC(=O)[C@H](CC(C)C)NC(=O)[C@H](CCCNC(=N)N)NC(=O)[C@H](CCCNC(=N)N)NC(=O)[C@H](CC(C)C)NC(=O)[C@H](CC(=O)O)NC2=O)NC1=O)C(C)C` [IGF-1 A:In (1-17)-IGF-1 B(18-30)], the IC80 (commonly the point of the concentration-response curve where the effect stands at 80%) in experiment [3] was 62.5 nM.
As for `CC[C@H](C)[C@H](NC(=O)CN)C(=O)N[C@H](C(=O)N[C@@H](CC(=O)O)C(=O)N[C@@H](CCC(=O)O)C(=O)N[C@H]1CSSC[C@@H]2NC(=O)[C@H](CO)NC(=O)[C@H](CCCNC(=N)N)NC(=O)[C@H](Cc3ccccc3)NC(=O)[C@H](CSSC[C@H](NC(=O)[C@H](CC(C)C)NC(=O)[C@H](Cc3c[nH]cn3)NC(=O)[C@H](CCC(=O)O)NC(=O)[C@@H]3CCCN3C(=O)CN)C(=O)NCC(=O)N[C@@H](C)C(=O)N[C@@H](CC(=O)O)C(=O)N[C@@H](CC(C)C)C(=O)N[C@@H](C(C)C)C(=O)N[C@@H](CC(=O)O)C(=O)N[C@@H](C)C(=O)N[C@@H](CC(C)C)C(=O)N[C@@H](Cc3ccc(O)cc3)C(=O)N[C@@H](CC(C)C)C(=O)N[C@@H](C(C)C)C(=O)N[C@H](C(=O)NCC(=O)N[C@@H](CC(=O)O)C(=O)N[C@@H](CCCNC(=N)N)C(=O)NCC(=O)N[C@@H](Cc3ccccc3)C(=O)N[C@@H](Cc3ccc(O)cc3)C(N)=O)CSSC[C@@H](C(=O)N[C@@H](C)C(N)=O)NC(=O)[C@H](Cc3ccc(O)cc3)NC(=O)[C@H](CC[S+](C)[O-])NC(=O)[C@H](CCC(=O)O)NC(=O)[C@H](CC(C)C)NC(=O)[C@H](CCCNC(=N)N)NC(=O)[C@H](CCCNC(=N)N)NC(=O)[C@H](CC(C)C)NC(=O)[C@H](CC(=O)O)NC2=O)NC1=O)C(C)C` (stereo partly drawn) [IGF-1 A:B(H5D10Y16L17) (S═O) DPI], the “% insulin (in test)” value in experiment [4] (Table 9, Insulin Receptor) is on record as 316.0%.
For `CC[C@H](C)[C@H](NC(=O)CN)C(=O)N[C@H](C(=O)N[C@@H](CC(=O)O)C(=O)N[C@@H](CCC(=O)O)C(=O)N[C@H]1CSSC[C@@H]2NC(=O)[C@H](CO)NC(=O)[C@H](CCCNC(=N)N)NC(=O)[C@H](Cc3ccccc3)NC(=O)[C@H](CSSC[C@H](NC(=O)[C@H](CC(C)C)NC(=O)[C@@H](NC(=O)[C@H](CCC(=O)O)NC(=O)[C@@H]3CCCN3C(=O)CN)[C@@H](C)O)C(=O)NCC(=O)N[C@@H](C)C(=O)N[C@@H](CCC(=O)O)C(=O)N[C@@H](CC(C)C)C(=O)N[C@@H](C(C)C)C(=O)N[C@@H](CC(=O)O)C(=O)N[C@@H](C)C(=O)N[C@@H](CC(C)C)C(=O)N[C@@H](Cc3ccc(O)cc3)C(=O)N[C@@H](CC(C)C)C(=O)N[C@@H](C(C)C)C(=O)N[C@H](C(=O)NCC(=O)N[C@@H](CC(=O)O)C(=O)N[C@@H](CCCNC(=N)N)C(=O)NCC(=O)N[C@@H](Cc3ccccc3)C(=O)N[C@@H](Cc3ccc(O)cc3)C(=O)N[C@@H](Cc3ccccc3)C(=O)N[C@@H](CC(N)=O)C(=O)N[C@@H](CCCCN)C(=O)N3CCC[C@H]3C(=O)N[C@H](C(N)=O)[C@@H](C)O)CSSC[C@@H](C(=O)N[C@@H](C)C(N)=O)NC(=O)[C@H](Cc3ccc(O)cc3)NC(=O)[C@H](CCSC)NC(=O)[C@H](CCC(=O)O)NC(=O)[C@H](CC(C)C)NC(=O)[C@H](CCCNC(=N)N)NC(=O)[C@H](CCCNC(=N)N)NC(=O)[C@H](CC(C)C)NC(=O)[C@H](CC(=O)O)NC2=O)NC1=O)C(C)C` [IGF1 (Y^B16L^B17)], in experiment [4] (Table 6), the “% of Insulin Activity” value came to 262%.
As to “B^1(H5,10Y16L17)25-C^1-A^1(T8N18,21) (GPEHLCGAHLVDALYLVCGDRGFYGYGSSSRRAPQTGIVDECCTRSCDLRRLENYCN) [Thr,A8]”, in experiment [1] (Table 13), the IR-B worked out at 8.4%. In experiment [2] (Table 13), this molecule gave an IR-A of 20.4%.
As for `CC[C@H](C)[C@H](NC(=O)CN)C(=O)N[C@H](C(=O)N[C@@H](CC(=O)O)C(=O)N[C@@H](CCC(=O)O)C(=O)N[C@H]1CSSC[C@@H]2NC(=O)[C@H](CO)NC(=O)[C@H](CCCNC(=N)N)NC(=O)[C@H](Cc3ccccc3)NC(=O)[C@H](CSSC[C@H](NC(=O)[C@H](CC(C)C)NC(=O)[C@@H](NC(=O)[C@H](CCC(=O)O)NC(=O)[C@@H]3CCCN3C(=O)CN)[C@@H](C)O)C(=O)NCC(=O)N[C@@H](C)C(=O)N[C@@H](CCC(=O)O)C(=O)N[C@@H](CC(C)C)C(=O)N[C@@H](C(C)C)C(=O)N[C@@H](CC(=O)O)C(=O)N[C@@H](C)C(=O)N[C@@H](CC(C)C)C(=O)N[C@@H](Cc3ccc(O)cc3)C(=O)N[C@@H](CC(C)C)C(=O)N[C@@H](C(C)C)C(=O)N[C@H](C(=O)NCC(=O)N[C@@H](CC(=O)O)C(=O)N[C@@H](CCCNC(=N)N)C(=O)NCC(=O)N[C@@H](Cc3ccccc3)C(=O)N[C@@H](Cc3ccc(O)cc3)C(N)=O)CSSC[C@@H](C(=O)N[C@@H](C)C(N)=O)NC(=O)[C@H](Cc3ccc(O)cc3)NC(=O)[C@H](CCSC)NC(=O)[C@H](CCC(=O)O)NC(=O)[C@H](CC(C)C)NC(=O)[C@H](CCCNC(=N)N)NC(=O)[C@H](CCCNC(=N)N)NC(=O)[C@H](CC(C)C)NC(=O)[C@H](CC(=O)O)NC2=O)NC1=O)C(C)C` [IGF-1 A:B (E10Y16L17) DPI], in experiment [3], the “% IGF-1 (in test)” value was 3.3%.
Turning to “B^1(H5,10Y16L17K29)29:A^1(H8,N18,21) (chain 1 GPEHLCGAHLVDALYLVCGDRGFYFNKK; chain 2 GIVDECCHRSCDLRRLENYCN) [DP3(TC)]”, in experiment [1] (Table 14), the IR-B stood at 33.1%. In experiment [2] (Table 14), this molecule came in with an IR-A of 159.8%.
Consider “B1,A14-10K B^1(H5,10Y16L17R29)29:A^1(H8K14N18,21) (chain 1 GPEHLCGAHLVDALYLVCGDRGFYFNKR; chain 2 GIVDECCHRSCDLKRLENYCN) [di-10K-TC]”, for which the IR-B in experiment [1] (Table 14) is 2.1%. Besides, the IR-A in experiment [2] (Table 14) is 6.4%.
As for “B1-PEG20K MIU-35 (GPEHLCGAHLVDALYLVCGDRGFYGYGSSSRRAPQTGIVDECCHRSCDLRRLENYCN; not fully specified (N-terminus); ends and bridges not checked; also: PEG20K at B1) [#39]”, in experiment [1] (Table 12), the “% Insulin Activity IR-B” value is 1.1%. The molecule also registered an IR-B in experiment [1] (Table 13) of 1.1%. Also, the “Phosphorylation (EC50) % IR-B” value in experiment [1] (Table 17) is on record as 1.1%. For the same molecule, the “% Insulin Activity IR-A” value in experiment [2] (Table 12) was found to be 3.1%. The molecule further showed an IR-A in experiment [2] (Table 13) of 4.5%. In experiment [2] (Table 17), the “Phosphorylation (EC50) % IR-A” value amounted to 4.5%.
In the case of “B^1(H5,10Y16L17K29)29-A^1(H8,N18,21) (GPEHLCGAHLVDALYLVCGDRGFYFNKKGIVDECCHRSCDLRRLENYCN) [DP3(SC)]”, in experiment [2] (Table 14), the IR-A is recorded as 0.03%.
Regarding `CC[C@H](C)[C@H](NC(=O)CN)C(=O)N[C@H](C(=O)N[C@@H](CC(=O)O)C(=O)N[C@@H](CCC(=O)O)C(=O)N[C@H]1CSSC[C@@H]2NC(=O)[C@H](CO)NC(=O)[C@H](CCCNC(=N)N)NC(=O)[C@H](Cc3ccccc3)NC(=O)[C@H](CSSC[C@H](NC(=O)[C@H](CC(C)C)NC(=O)[C@H](Cc3c[nH]cn3)NC(=O)[C@H](CCC(N)=O)NC(=O)[C@H](CC(N)=O)NC(=O)[C@@H](NC(=O)[C@@H](N)Cc3ccccc3)C(C)C)C(=O)NCC(=O)N[C@@H](C)C(=O)N[C@@H](CCC(=O)O)C(=O)N[C@@H](CC(C)C)C(=O)N[C@@H](C(C)C)C(=O)N[C@@H](CC(=O)O)C(=O)N[C@@H](C)C(=O)N[C@@H](CC(C)C)C(=O)N[C@@H](Cc3ccc(O)cc3)C(=O)N[C@@H](CC(C)C)C(=O)N[C@@H](C(C)C)C(=O)N[C@H](C(=O)NCC(=O)N[C@@H](CC(=O)O)C(=O)N[C@@H](CCCNC(=N)N)C(=O)NCC(=O)N[C@@H](Cc3ccccc3)C(=O)N[C@@H](Cc3ccc(O)cc3)C(=O)N[C@@H](Cc3ccccc3)C(=O)N[C@@H](CC(N)=O)C(=O)N[C@@H](CCCCN)C(=O)N3CCC[C@H]3C(=O)N[C@H](C(N)=O)[C@@H](C)O)CSSC[C@@H](C(=O)N[C@@H](C)C(N)=O)NC(=O)[C@H](Cc3ccc(O)cc3)NC(=O)[C@H](CCSC)NC(=O)[C@H](CCC(=O)O)NC(=O)[C@H](CC(C)C)NC(=O)[C@H](CCCNC(=N)N)NC(=O)[C@H](CCCNC(=N)N)NC(=O)[C@H](CC(C)C)NC(=O)[C@H](CC(=O)O)NC2=O)NC1=O)C(C)C` [IGF-1 A:In B(1-5)-IGF-1 B(YL) (6-30)], the “% IGF-1 (in test)” value in experiment [3] turned out to be 3.6%.
In turn, “B^1(H5,10Y16L17R29)30-C^1des9-12-A^1(H8,K14,N18,21) (GPEHLCGAHLVDALYLVCGDRGFYFNKRTGYGSSSRRGIVDECCHRSCDLKRLENYCN) [DP8Mut3KA14]” yielded an IR-B in experiment [1] (Table 14) of 12.6%. The same molecule registered an IR-A in experiment [2] (Table 14) of 132.2%.

B1: GE5W-B^1(H5,10Y16L17)25-C^1-A^1(A1H8N18,21) (protein)
chain: GEEEEEWGPEHLCGAHLVDALYLVCGDRGFYGYGSSSRRAPQTAIVDECCHRSCDLRRLENYCN
B1 had an IR-B in experiment [1] (Table 13) of 0.7%. In experiment [2] (Table 13), this molecule returned an IR-A of 2.1%.
